According to the supplement of paper PMC12636428:

System: Saccharomyces cerevisiae
Experiment: transcriptional activation domain activity (GFP:mCherry ratio, weighted mean of sorted bins, harmonized to initial dataset scale) (arbitrary fluorescence ratio units); higher = stronger transcriptional activation
Details: beta-estradiol 1 µM; induction time 4 h
Method in brief: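 Barcoded protein tiles fused to an estradiol-inducible synthetic transcription factor were integrated at the yeast URA3 locus, in diploids carrying a GFP reporter. Cultures were diluted 1:5 into SC with 1 uM beta-estradiol, held 4 hours at 30 °C, sorted into 8 bins by GFP:mCherry ratio, and barcodes sequenced. Tiles under 50 reads were discarded. Activation activity is the read-weighted mean of bin median fluorescence, averaged across barcodes, then linearly mapped onto the initial dataset scale.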

Row | Sequence | transcriptional activation domain activity
1 | AAAGAADEAKTSSSPNGTKEAAVASSGGEKPAAAGVAGAPNSQSQTGAQPTKK | 28700
2 | MVVVSCLSGAFLFFLFVHVVSGALFTYYSLLSLIFSLYHSILFVCWADLFFFF | 57100
3 | VLFAVAVYMNHVPTAILWMSCVSAKLFSFCSQTFFVIRVYFLPWRFDLVFIPL | 37600
4 | TSAFGQTNNAASPFGGTSNTAAGGFGSPATGGFGTNTAGGAFGSKPAFGATTT | 38300
5 | LTKKALDRLLGGDLSSLVAATISVSDWILDVAISSHDRISCILVTAHNTVLQA | 35700
6 | LGVVFWCWCGLLGLKIQLYAGSYIKFRSVVIVMLIVLEIFEISINVSVCVIFH | 53000
7 | MASLRNHAEQLNAAVYRNYKKDRKVGEGAYAVVYLGTQLSTKKVVAIKKIKVG | 49800
8 | HPLSWAKFALVMGMLSSLGVLVISTYSVSLSILQFARPLQYIPRFLWTIATLV | 34400
9 | KVAYRNPAADSEGWRRWGNDEARHGTLGVEEMERRIEALRKAKVGGGMVKVGF | 35500
10 | FLTAIPAVPFAGGLSFNILLLFHHSLPFAGFLAHGFYRIIFPITLFFLPIFML | 52900
11 | GEEGDKPKRGRKRKEAPKDDGEDADDAEAPAAKKAKPASKPASKAAATKPASK | 34200
12 | GGGSEERGGRGRQEGGKDREAGGRERGSAGEREETEGGTGAEGGGGGERRQGE | 32300
13 | APSPPPAPEPVPEMKAIEAAPEPEPEPEPEDKWDVPVVAKKGKKAKKGAASQA | 25000
14 | HLINEDKYQSFSIKQWLPLVYNMLFYIKEKEELVLRINSSFTLRRFVEMAAKE | 50700
15 | FKDLLVEGFDNNRLIVAIPFVCKVLEQASKSRVFKPPNPWLMAILRLLVELYH | 51200
16 | VEAGDGDGAPPKSAKRPRKKKEPVEEGDGDAAAPKPAKRPRKKKVDVTEAQKE | 48100
17 | MAHRFWTLQLFGNIYIIQFLGCIGFGLSLWILMHLINMIEVRNQTIQLSMLFA | 62800
18 | YVLVLTYLNYFVLILFGHMRDILGKVFKAQAYVHLKTVNGYAPLVSDFDSFYN | 63900
19 | VLLLVIFACAIVYLKSLVYSPSPFPTLIACYMSHSNRRYLSVMYGVVLVHQIT | 75600
20 | MRFLLTIIHFFLTLFLSYTLFLSVILLFSRLYYFLSIIRSSYAIIWIFFLFIL | 52000
21 | MAEDSDPSADGGLPMPYSCYECRNRKLKCDRRKDGCSRCAQAGGKCHYPTSRK | 48800
22 | VYVDNDGLPARSQWVLMYERMGEQGGMTLAARFVMFVDFLVQMVRLLSRSPLY | 34600
23 | MLQLWRLCVDNLLMAFSNYFPLVLPHATRFYLFYFWLILRGLQLTRLFCVCFM | 85300
24 | MDGGLFCVSISLVHFLLLLFPSHPLILRLIFLLFTFHFPVRLYFNFVLLQLLT | 67900
25 | KRKACLVCDLICTLLLQGLVSNEELRIDYSHRRCDLWRRQRWIGFVTPLSILE | 36400

Row | Sequence | transcriptional activation domain activity
26 | MTHILGYIHRSCYFLFLRSFLNFDISCCWITLSWLLCRSILYYCRPMVKILSS | 66300
27 | MTYTFDLFSSFLSIVYMPHMATLYFLFFFLLLQCGYFIVLCFFFFHCVLCCFS | 67000
28 | HLCHLVPSLPFHLPFFFFEPFLSKTFTSFFLFFFLWLSPLNTNHPPIFLFFHT | 80200
29 | GKVPRRTERRKLWDDVKALRKELIDILLFSPLSLADIHFRYRKREGGVVNYYL | 21800
30 | GRPPRSSNESPEAKPAKRARKKAPTEEPEAEVLEDVKPKRGRARVAKKTTADV | 22400
31 | TSRAPPSASPPTASHGAPTPPPPSPSSSPAPATPSSHPCPPTSSSSRPPSSPP | 41800
32 | GMGTAAGKSRARAAAKKTTTKGKESKGKSKSQVGTRRSVRGKRGAREVGDASS | 27300
33 | DAPEKEPEAEAAKPKGRGGRPKKVVPPAAAAPAPKEKEEPKPKAAAGRKRKAP | 32100
34 | ERRMGTCRSFHLRVGLPQLYAARLLIKASLDVRRLSVWQLGQLVWSIQKFSRQ | 32200
35 | EEEDRHRHSRHRSKRSRSRTYSEERHRSRTRDSARRSKTRTKSPDERPPASED | 40900
36 | VSDYSMAQFRFLLKFLLVHGRWNYVRICKYTVGTFWKELLFYLTQALFQRSNG | 46600
37 | RTSRHLTLLFWSPLLFFSILLLLPIFLPLFLRFLLLWFPILLLLPLLCFLLLW | 13000
38 | STRNYKLYIGNTVFFCGGRFLTSRAFWAFGLSLFLINMPAILFIIFSCPWLWY | 55900
39 | PAPKKAAAPAKKDALKAKKEESSSSSSDSEDEKPAPKKAAASAAKKVVAKAQK | 21000
40 | VAAVSRGEKERHRDRDREKKPSRSKPEKSSRRVVEKEEKTSSKGSASDKADKT | 39700
41 | MEILKLPFYILHVLPLPIRGALATLTPLVRFHTVVVSLSCLLSLRCIYLLFFH | 75300
42 | MLFHFLAFPFLFFIFFLCCFSSWVAFHSPFSFLIMFSFEWIMLFFIRCTASSV | 41600
43 | MKSLPFGIHTAVCDLISLLLLLLLFFFFFFLLASIWVLDNFFPFFPFSRHLYS | 37500
44 | MHFLNFLFYCVYYLPLNHTIFFYFVWLTLTLLFFFFLVVYIHISSISSFFYIC | 56600
45 | AGAAAASTAAEADGEKDGEEGETKPAAPAKKPRKARAKKQVKSEEKAVEEATG | 19300
46 | LSGLFSGYLCLFVSGFHIVMTEGILVIGYLVSPVFLFFFPLPFIFVMFPLHFV | 76700
47 | LLIPTISFFFCATNCYVLTKDSQLDRGYIYWVLRCSAVHLMLSFFTLLFSLCF | 48100
48 | ISICLPELRLFMYCKFLYWLEVMSLLNDLEHVKQMLKDVLGCGKMQLKVFKFT | 62000
49 | RRERKERKRARKEKDRRKRRHRRSQTDSDEEDRERHRDSRRKRSRSASRERRE | 20000
50 | DDSRERRRSSRKDREKDRKERKRHRHRSDDKSEDDDDRRHRKDRKRSRPSSAA | 22100

Row | Sequence | transcriptional activation domain activity
51 | MGLLVIMEVVFCVINLDALFFFLLSLLLLFLTFFSFFRIMMEFIVFLHVSFYF | 61400
52 | TAVSQLERAIARILLIRYEQDIARLFSTRLYSVALVHLPTFVMRCAALAGPGW | 50400
53 | EKEARHAGRESRKAPEVREHRSSRRKDKERERSARPDNERRKTHVDGEDPEER | 23800
54 | MYLFFFFFLDWFFFVVIITIICILWIWAWDFWACLLGIGIGFACLFYSGWVLF | 47800
55 | TYINYLITSNAGLTATIVHMLLWNYAEVSLGWSWITIANMKKLLRPETYKFWQ | 33300
56 | NLNFMPINNNYNNSGSNINNNDNVKLPSNFKNYYDPPMSSLDISMDVPDIFGS | 94300
57 | MFYKLLIIYCFLFFRIYFLFHFFSYIYFFFFLFSISNFVISLPSNLFSHLLFF | 47000
58 | MTNLFSASFLSSSSSLSFFFSLFFLLFQRYLLEERPLTIMAFYLLPFFFSLSL | 29800
59 | ENNDQFNNKTRKRKRRMSSTSSTSKASRKNSISRKNSAVTTAPAQKDDVENNK | < 6570
60 | DWESIGAASLRNNSLAPNIDSVASSTNGVVSPKPTNPSFTNSQNGDIEPPLQH | 46900
61 | EIGPDGEVKKKYDPKDPMRPRRKKARRACFACQRAHLTCGDERPCQRCIKRGL | 53300
62 | MFAKILVLSWFDSIRWGLFLLLCVMGVFLLFDIPFFLFPTCFLCLVFPFLLAK | 20400
63 | PKWHRYEDYEALFRVRNLCFPLILSGDIQLTLEYWWSIFSTSILRRPIFELNI | 69600
64 | SSLMQYTLGATIGFVQSLEVRTQVLHLLVKLFQSLPQPDHFSIAQCYVYLNAP | 57200
65 | PSASTRSAKSGSKGKGSKTTTVGSGSDTEKESAKMASSRSSKHSSSSRKDKSS | 29200
66 | FFHVTIRVASQSCGIAFGILGFSNFPVFLAYLILGAEGYFSLVLCAFRFLISW | 75000
67 | QQTGKGKIHRQYALVVVGNGDGLVGYGEGKDEELPRASDKAFAAAVRNMDHVE | 43700
68 | MRTLKLCSSCKHLGPEIYAFGWVCTNLSCQILFRHSGFHSLKGVTYSTSFLAQ | 57400
69 | NANNANTNANANNNAATTNANANGNGKKGKNNNNNANANANANANAAAAAAAG | 18400
70 | SADDSAGEARQREKSEESGTRRSRKSHDRESKEGAEGADEAESWERSSKKKSR | 29600
71 | VYCQVLLNHKYRAYGGGYRAETIIYSFGRLSDLLYFVPVVVGRMEMRMGLTLK | 52200
72 | MYETNLFQWKLSIGFGFVLDYFIGLFLLDFFILDCIFYLLINSAICVFYSLSG | 58100
73 | LSQNYLLTWDDSGDWLSLADAGVIAALLFRNNLSETWLDEFASWCRLLWYLRQ | 58600
74 | MRTPSTSPFDFCFFFAFSFLLLCWPVIPFILLFYILKFLWTYPFVFCVLYFIE | 37600
